Where two headings read alike, the source gives them in different places.
Legend:
Test in all cases: peptide ELISA, OD 655 nm
[1] = molecular target: T1, D618A peptide (HER2 603-622 with D618A) (human)
T1 peptide: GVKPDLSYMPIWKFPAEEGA

[2] = molecular target: T2, P612A peptide (HER2 603-622 with P612A) (human)
T2 peptide: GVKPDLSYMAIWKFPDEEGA

[3] = molecular target: T3, S609A peptide (HER2 603-622 with S609A) (human)
T3 peptide: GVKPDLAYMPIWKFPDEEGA

[4] = molecular target: T4, W614A peptide (HER2 603-622 with W614A) (human)
T4 peptide: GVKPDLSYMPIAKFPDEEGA

[5] = molecular target: T5, K605A peptide (HER2 603-622 with K605A) (human)
T5 peptide: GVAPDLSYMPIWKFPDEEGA

[6] = molecular target: T6, HER2 peptide p603-622 (amino acids 603 to 622 of human HER2) (human)
T6 construct: Synthetic peptide; also called wild-type HER2 peptide
T6 peptide: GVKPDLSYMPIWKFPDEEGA

[7] = molecular target: T7, G621A peptide (HER2 603-622 with G621A) (human)
T7 peptide: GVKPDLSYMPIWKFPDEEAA

[8] = molecular target: T8, P617A peptide (HER2 603-622 with P617A) (human)
T8 peptide: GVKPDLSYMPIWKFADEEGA

[9] = molecular target: T9, E620A peptide (HER2 603-622 with E620A) (human)
T9 peptide: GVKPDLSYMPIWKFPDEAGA

[10] = molecular target: T10, L608A peptide (HER2 603-622 with L608A) (human)
T10 peptide: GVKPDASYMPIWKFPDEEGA

[11] = molecular target: T11, E619A peptide (HER2 603-622 with E619A) (human)
T11 peptide: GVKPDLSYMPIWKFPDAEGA

[12] = molecular target: T12, HER2_604-622C peptide (NH2-VKPDLSYMPIWKFPDEEGAC-COOH) (human)
T12 construct: KLH was added for immunisation, the peptide itself was coated in the screening ELISA
T12 peptide: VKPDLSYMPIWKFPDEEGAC

[13] = molecular target: T13, I613A peptide (HER2 603-622 with I613A) (human)
T13 construct: also called 1613A
T13 peptide: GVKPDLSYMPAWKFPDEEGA

[14] = molecular target: T14, V604A peptide (HER2 603-622 with V604A) (human)
T14 peptide: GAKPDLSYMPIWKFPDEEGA

[15] = molecular target: T15, M611A peptide (HER2 603-622 with M611A) (human)
T15 peptide: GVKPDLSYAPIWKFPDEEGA

[16] = molecular target: T16, G603A peptide (HER2 603-622 with G603A) (human)
T16 peptide: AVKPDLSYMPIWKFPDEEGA

[17] = molecular target: T17, D607A peptide (HER2 603-622 with D607A) (human)
T17 peptide: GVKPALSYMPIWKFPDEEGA

[18] = molecular target: T18, K615A peptide (HER2 603-622 with K615A) (human)
T18 peptide: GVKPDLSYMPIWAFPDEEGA

[19] = molecular target: T19, Y610A peptide (HER2 603-622 with Y610A) (human)
T19 peptide: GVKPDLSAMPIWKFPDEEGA

[20] = molecular target: T20, P606A peptide (HER2 603-622 with P606A) (human)
T20 peptide: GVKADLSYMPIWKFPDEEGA

[21] = molecular target: T21, F616A peptide (HER2 603-622 with F616A) (human)
T21 peptide: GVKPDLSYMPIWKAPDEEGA

[22] = molecular target: T1, D618A peptide (HER2 603-622 with D618A)
[23] = molecular target: T2, P612A peptide (HER2 603-622 with P612A)
[24] = molecular target: T3, S609A peptide (HER2 603-622 with S609A)
[25] = molecular target: T4, W614A peptide (HER2 603-622 with W614A)
[26] = molecular target: T5, K605A peptide (HER2 603-622 with K605A)
[27] = molecular target: T6, HER2 peptide p603-622 (amino acids 603 …)
[28] = molecular target: T7, G621A peptide (HER2 603-622 with G621A)
[29] = molecular target: T8, P617A peptide (HER2 603-622 with P617A)
[30] = molecular target: T9, E620A peptide (HER2 603-622 with E620A)
[31] = molecular target: T10, L608A peptide (HER2 603-622 with L608A)
[32] = molecular target: T11, E619A peptide (HER2 603-622 with E619A)
[33] = molecular target: T12, HER2_604-622C peptide …
[34] = molecular target: T13, I613A peptide (HER2 603-622 with I613A)
[35] = molecular target: T14, V604A peptide (HER2 603-622 with V604A)
[36] = molecular target: T15, M611A peptide (HER2 603-622 with M611A)
[37] = molecular target: T16, G603A peptide (HER2 603-622 with G603A)
[38] = molecular target: T17, D607A peptide (HER2 603-622 with D607A)
[39] = molecular target: T18, K615A peptide (HER2 603-622 with K615A)
[40] = molecular target: T19, Y610A peptide (HER2 603-622 with Y610A)
[41] = molecular target: T20, P606A peptide (HER2 603-622 with P606A)
[42] = molecular target: T21, F616A peptide (HER2 603-622 with F616A)

B1: H2Mab-299 antibody (antibody, mouse IgG1, kappa, V domains shown)
VH: EVQLVESGGGLVQPGGSLKLSCAASGFTFNIYGIFWVRQTPDKRLELVATIHSNGGRIYYPDSVKGRFTISRDNAKNTLYLQMSSLKSEDTAMYYCAREGGDYWGQGTSVTVSS
VL: DIVMTQSHKVMATSVGDRVSITCKASQDVGTAVAWYQQKPGQSPKLLIYWASTRHTGVPDRFTGSGSGTDFTLTINNVLSEDLVDYFCQQYRRYPLTFGAGTKLELKR
**Q.** Does B1 bind [1]?
**A.** binds

**Q.** Does B1 bind [2]?
**A.** binds

**Q.** Does B1 bind [3]?
**A.** binds

**Q.** Does B1 bind [4]?
**A.** binds

**Q.** Does B1 bind [5]?
**A.** binds

**Q.** Does B1 bind [6]?
**A.** binds

**Q.** Does B1 bind [7]?
**A.** binds

**Q.** Does B1 bind [8]?
**A.** binds

**Q.** Does B1 bind [9]?
**A.** binds

**Q.** Does B1 bind [10]?
**A.** binds

**Q.** Does B1 bind [11]?
**A.** binds

**Q.** Does B1 bind [12]?
**A.** binds

**Q.** Does B1 bind [13]?
**A.** binds

**Q.** Does B1 bind [14]?
**A.** binds

**Q.** Does B1 bind [15]?
**A.** binds

**Q.** Does B1 bind [16]?
**A.** binds

**Q.** Does B1 bind [17]?
**A.** binds

**Q.** Does B1 bind [18]?
**A.** binds

**Q.** Does B1 bind [19]?
**A.** binds

**Q.** Does B1 bind [20]?
**A.** binds

**Q.** Does B1 bind [21]?
**A.** no binding (tested: 10 ug/ml)

B2: H2Mab-291 antibody (antibody, mouse IgG3, V domains shown)
VH: EVQLQQSGPELVKPGASMKISCKASGYSFTGYTMNWVKQSHGKNLEWIGLINPYNGNTRYNQKFQDKATLTVDRSSSTAYMELLSLTSEDSAVYYCVKEPSDYWGQGTTLTVSS
VL: DVVMTQTPLSLPVSLGDQASISCRSSQSLVHINGNTYLHWYLQKPGQSPKLLIYKVSKRFSGVPDRFSGSGSGTDFTLKISRVEAADLGVYFCSQSTHVPPTFGGGTKLEIKR
**Q.** Does B2 bind [22]?
**A.** binds

**Q.** Does B2 bind [23]?
**A.** binds

**Q.** Does B2 bind [24]?
**A.** binds

**Q.** Does B2 bind [25]?
**A.** binds

**Q.** Does B2 bind [26]?
**A.** binds

**Q.** Does B2 bind [27]?
**A.** binds

**Q.** Does B2 bind [28]?
**A.** binds

**Q.** Does B2 bind [29]?
**A.** binds

**Q.** Does B2 bind [30]?
**A.** binds

**Q.** Does B2 bind [31]?
**A.** binds

**Q.** Does B2 bind [32]?
**A.** binds

**Q.** Does B2 bind [33]?
**A.** binds

**Q.** Does B2 bind [34]?
**A.** binds

**Q.** Does B2 bind [35]?
**A.** binds

**Q.** Does B2 bind [36]?
**A.** binds

**Q.** Does B2 bind [37]?
**A.** binds

**Q.** Does B2 bind [38]?
**A.** binds

**Q.** Does B2 bind [39]?
**A.** binds

**Q.** Does B2 bind [40]?
**A.** binds

**Q.** Does B2 bind [41]?
**A.** binds

**Q.** Does B2 bind [42]?
**A.** binds

B3: H2Mab-292 antibody (antibody, mouse IgG3, V domains shown)
VH: EVQLQQSGPELVKPGASRKISCKASGYSFTGYTMNWVKKSHGKNLEWIGLINPSNGGTRYNQKFKDKATLTVDKSSSTAYMELLSLTSEDSAVYYCVKEPSDYWGQGTTLTVSS
VL: DVVMTQTPLSLPVSLGDQASISCRSSQSLVHSNGNTYLHWYLQKPGQSPKLLIYKVSNRFSGVPDRFSGRGSGTDFTLKISRVEAEDLGIYFCSQSTHVPPTFGGGTKLEIKR
**Q.** Does B3 bind [22]?
**A.** binds

**Q.** Does B3 bind [23]?
**A.** binds

**Q.** Does B3 bind [24]?
**A.** binds

**Q.** Does B3 bind [25]?
**A.** no binding (tested: 10 ug/ml)

**Q.** Does B3 bind [26]?
**A.** binds

**Q.** Does B3 bind [27]?
**A.** binds

**Q.** Does B3 bind [28]?
**A.** binds

**Q.** Does B3 bind [29]?
**A.** binds

**Q.** Does B3 bind [30]?
**A.** binds

**Q.** Does B3 bind [31]?
**A.** binds

**Q.** Does B3 bind [32]?
**A.** binds

**Q.** Does B3 bind [33]?
**A.** binds

**Q.** Does B3 bind [34]?
**A.** binds

**Q.** Does B3 bind [35]?
**A.** binds

**Q.** Does B3 bind [36]?
**A.** binds

**Q.** Does B3 bind [37]?
**A.** binds

**Q.** Does B3 bind [38]?
**A.** binds

**Q.** Does B3 bind [39]?
**A.** binds

**Q.** Does B3 bind [40]?
**A.** binds

**Q.** Does B3 bind [41]?
**A.** binds

**Q.** Does B3 bind [42]?
**A.** binds
